{
  "source": "paper PMC2710002",
  "about": "“KCNE1 and KCNE3 β-Subunits Regulate Membrane Surface Expression of Kv12.2 K^+ Channels In Vitro and Form a Tripartite Complex In Vivo” (PLoS ONE, 2009)",
  "target": "the molecule itself",
  "test": "native gel or EMSA; blue native PAGE (4-16% NativePAGE Novex Bis-Tris, G-250, pH 7, 4°C) of proteins immunoprecipitated from digitonin lysate of mouse brain; blot with anti-Kv12.2; size of the Kv12.2 complex",
  "data": [
    {"protein": "Kv12.2 channel (natural protein, mouse (endogenous in mouse brain), UniProt Q9WVJ0 1-1095, looked up, Kv12.2 (ELK2, KCNH3) voltage-gated potassium channel alpha subunit, mouse, endogenous in brain; about 120 kDa monomer on a denaturing gel, about 500 kDa complex on a native gel; also called ELK2; KCNH3; source: endogenous, mouse brain membrane lysate (0.5% Igepal) or whole mouse brain lysate (1% digitonin)) MPAMRGLLAPQNTFLDTIATRFDGTHSNFVLGNAQVAGLFPVVYCSDGFCDLTGFSRAEVMQRGCACSFLYGPDTSELVRQQIRKALDEHKEFKAELILYRKSGLPFWCLLDVIPIKNEKGEVALFLVSHKDISETKNRGGPDNWKERGGGRRRYGRAGSKGFNANRRRSRAVLYHLSGHLQKQPKGKHKLNKGVFGEKPNLPEYKVAAIRKSPFILLHCGALRATWDGFILLATLYVAVTVPYSVCVSTAREPSAARGPPSVCDLAVEVLFILDIVLNFRTTFVSKSGQVVFAPKSICLHYVTTWFLLDVIAALPFDLLHAFKVNVYVGAHLLKTVRLLRLLRLLPRLDRYSQYSAVVLTLLMAVFALLAHWVACVWFYIGQQEIESSESELPEIGWLQELARRLETPYYLVSRSPDGGNSSGQSENCSSSSSSSGSGGGRGSEANGTGLELLGGPSLRSAYITSLYFALSSLTSVGFGNVSANTDTEKIFSICTMLIGALMHAVVFGNVTAIIQRMYARRFLYHSRTRDLRDYIRIHRIPKPLKQRMLEYFQATWAVNNGIDTTELLQSLPDELRADIAMHLHKEVLQLPLFEAASRGCLRALSLALRPAFCTPGEYLIHQGDALQALYFVCSGSMEVLKGGTVLAILGKGDLIGCELPQREQVVKANADVKGLTYCVLQCLQLAGLHESLALYPEFAPRFSRGLRGELSYNLGAGGVSAEVDTSSLSGDNTLMSTLEEKETDGEQGHTVSPAPADEPSSPLLSPGCTSSSSAAKLLSPRRTAPRPRLGGRGRPSRAGVLKPEAGPSAHPRSLDGLQLPPMPWNVPPDLSPRVVDGIEDGCSSDQPKFSFRVGQSGPECSSSPSPGTESGLLTVPLGPSEARNTDTLDKLRQAVMELSEQVLQMREGLQSLRQAVQLILVPQGEGQCPRGSGEEPCPATASGLLQPLRVDTGASSYCLQPPAGSVLSGTWPHPRPGQPPPLMAPWPWGPPASQSSPWPRATALWTSTSDSEPPGSGDLCSEPSTPASPPPSEEGARTGTPAPVSQAEATSTGEPPPGPGGRALPWDPHSLEMVLIGCHGPGTVQWTQEEGTGV", "values": [
      {"measurement": "stoichiometry N", "value": 4}
    ]}
  ]
}
